Experimental data published in publication PMC4121139.

Molecular target: human serum albumin (human) (UniProt P02768)
Experiment: SPR

Substance “albumin-binding domain (ABD) derived from streptococcal protein G (domain or fragment)” has a Kd of 8.1 nM, a koff of 0.00044 s⁻¹ and a kon of 54000 M⁻¹ s⁻¹.
